From the supplement of paper PMC10567573

B1: ZNF263 (parent)
chain: RTHTGEKPYKCTLCGENFSHRSNL
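Note: lentivirally expressed fusions sorted by FACS into six bins by GFP to DsRed ratio, PSI derived from sequencing read proportions per bin multiplied by bin number.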

Variants of: B1
Test: protein stability index of a GFP-peptide fusion (GPS, HEK-293T) (PSI 1-6); higher = more stable
Conditions: c terminus: a fixed tail appended
RTHTGAKPYKCTLCGENFSHRSNL [E6A] showed a protein stability index of 2.15.
Work on RTHTGCKPYKCTLCGENFSHRSNL [E6C] yielded a protein stability index of 2.44.
For RTHTGDKPYKCTLCGENFSHRSNL [E6D], the protein stability index was 2.37.
Variant RTHTGFKPYKCTLCGENFSHRSNL [E6F] has a protein stability index of 1.62.
RTHTGGKPYKCTLCGENFSHRSNL [E6G] gave a protein stability index of 1.88.
RTHTGHKPYKCTLCGENFSHRSNL [E6H] gave a protein stability index of 1.71.
RTHTGIKPYKCTLCGENFSHRSNL [E6I] showed a protein stability index of 1.69.
In the case of RTHTGKKPYKCTLCGENFSHRSNL [E6K], the protein stability index is reported as 1.9.
Variant RTHTGLKPYKCTLCGENFSHRSNL [E6L] has a protein stability index of 2.18.
In the case of RTHTGMKPYKCTLCGENFSHRSNL [E6M], the protein stability index is reported as 2.37.
RTHTGNKPYKCTLCGENFSHRSNL [E6N] showed a protein stability index of 1.67.
With RTHTGPKPYKCTLCGENFSHRSNL [E6P] the protein stability index was 2.68.
RTHTGQKPYKCTLCGENFSHRSNL [E6Q] showed a protein stability index of 2.34.
RTHTGRKPYKCTLCGENFSHRSNL [E6R] gave a protein stability index of 2.34.
For RTHTGSKPYKCTLCGENFSHRSNL [E6S], the protein stability index was 2.39.
RTHTGTKPYKCTLCGENFSHRSNL [E6T] gave a protein stability index of 2.26.
In the case of RTHTGVKPYKCTLCGENFSHRSNL [E6V], the protein stability index is reported as 2.08.
Variant RTHTGWKPYKCTLCGENFSHRSNL [E6W] has a protein stability index of 1.58.
In the case of RTHTGYKPYKCTLCGENFSHRSNL [E6Y], the protein stability index is reported as 2.64.
In the case of RTHTGEAPYKCTLCGENFSHRSNL [K7A], the protein stability index is reported as 2.04.
Variant RTHTGECPYKCTLCGENFSHRSNL [K7C] has a protein stability index of 3.39.
Variant RTHTGEDPYKCTLCGENFSHRSNL [K7D] has a protein stability index of 2.02.
RTHTGEEPYKCTLCGENFSHRSNL [K7E] gave a protein stability index of 2.12.
With RTHTGEFPYKCTLCGENFSHRSNL [K7F] the protein stability index was 1.85.
RTHTGEGPYKCTLCGENFSHRSNL [K7G] gave a protein stability index of 2.31.
Work on RTHTGEHPYKCTLCGENFSHRSNL [K7H] yielded a protein stability index of 2.19.
RTHTGEIPYKCTLCGENFSHRSNL [K7I] gave a protein stability index of 1.99.
Work on RTHTGELPYKCTLCGENFSHRSNL [K7L] yielded a protein stability index of 1.86.
Work on RTHTGEMPYKCTLCGENFSHRSNL [K7M] yielded a protein stability index of 1.97.
RTHTGENPYKCTLCGENFSHRSNL [K7N] gave a protein stability index of 1.9.
In the case of RTHTGEPPYKCTLCGENFSHRSNL [K7P], the protein stability index is reported as 1.62.
RTHTGEQPYKCTLCGENFSHRSNL [K7Q] gave a protein stability index of 1.71.
For RTHTGERPYKCTLCGENFSHRSNL [K7R], the protein stability index was 2.04.
RTHTGESPYKCTLCGENFSHRSNL [K7S] gave a protein stability index of 2.2.
RTHTGETPYKCTLCGENFSHRSNL [K7T] showed a protein stability index of 1.94.
Work on RTHTGEVPYKCTLCGENFSHRSNL [K7V] yielded a protein stability index of 2.37.
For RTHTGEWPYKCTLCGENFSHRSNL [K7W], the protein stability index was 2.03.
In the case of RTHTGEYPYKCTLCGENFSHRSNL [K7Y], the protein stability index is reported as 1.73.
In the case of RTHTGEKAYKCTLCGENFSHRSNL [P8A], the protein stability index is reported as 2.1.
RTHTGEKCYKCTLCGENFSHRSNL [P8C] gave a protein stability index of 2.51.
In the case of RTHTGEKDYKCTLCGENFSHRSNL [P8D], the protein stability index is reported as 2.44.
RTHTGEKEYKCTLCGENFSHRSNL [P8E] gave a protein stability index of 2.82.
For RTHTGEKFYKCTLCGENFSHRSNL [P8F], the protein stability index was 1.38.
RTHTGEKGYKCTLCGENFSHRSNL [P8G] gave a protein stability index of 2.44.
RTHTGEKHYKCTLCGENFSHRSNL [P8H] gave a protein stability index of 2.06.
For RTHTGEKIYKCTLCGENFSHRSNL [P8I], the protein stability index was 1.63.
For RTHTGEKKYKCTLCGENFSHRSNL [P8K], the protein stability index was 2.06.
For RTHTGEKLYKCTLCGENFSHRSNL [P8L], the protein stability index was 1.98.
RTHTGEKMYKCTLCGENFSHRSNL [P8M] gave a protein stability index of 2.3.
For RTHTGEKNYKCTLCGENFSHRSNL [P8N], the protein stability index was 1.96.
Variant RTHTGEKQYKCTLCGENFSHRSNL [P8Q] has a protein stability index of 2.09.
For RTHTGEKRYKCTLCGENFSHRSNL [P8R], the protein stability index was 1.99.
RTHTGEKSYKCTLCGENFSHRSNL [P8S] gave a protein stability index of 1.78.
RTHTGEKTYKCTLCGENFSHRSNL [P8T] gave a protein stability index of 1.9.
Work on RTHTGEKVYKCTLCGENFSHRSNL [P8V] yielded a protein stability index of 1.91.
RTHTGEKWYKCTLCGENFSHRSNL [P8W] gave a protein stability index of 1.46.
RTHTGEKYYKCTLCGENFSHRSNL [P8Y] showed a protein stability index of 1.64.
RTHTGEKPAKCTLCGENFSHRSNL [Y9A] gave a protein stability index of 2.15.
RTHTGEKPCKCTLCGENFSHRSNL [Y9C] gave a protein stability index of 3.37.
With RTHTGEKPDKCTLCGENFSHRSNL [Y9D] the protein stability index was 2.44.
In the case of RTHTGEKPEKCTLCGENFSHRSNL [Y9E], the protein stability index is reported as 2.4.
Work on RTHTGEKPFKCTLCGENFSHRSNL [Y9F] yielded a protein stability index of 1.96.
For RTHTGEKPGKCTLCGENFSHRSNL [Y9G], the protein stability index was 1.6.
Work on RTHTGEKPHKCTLCGENFSHRSNL [Y9H] yielded a protein stability index of 2.61.
For RTHTGEKPIKCTLCGENFSHRSNL [Y9I], the protein stability index was 1.52.
With RTHTGEKPKKCTLCGENFSHRSNL [Y9K] the protein stability index was 2.45.
RTHTGEKPLKCTLCGENFSHRSNL [Y9L] showed a protein stability index of 1.79.
For RTHTGEKPMKCTLCGENFSHRSNL [Y9M], the protein stability index was 1.69.
With RTHTGEKPNKCTLCGENFSHRSNL [Y9N] the protein stability index was 2.1.
RTHTGEKPPKCTLCGENFSHRSNL [Y9P] showed a protein stability index of 2.04.
In the case of RTHTGEKPQKCTLCGENFSHRSNL [Y9Q], the protein stability index is reported as 1.84.
Work on RTHTGEKPRKCTLCGENFSHRSNL [Y9R] yielded a protein stability index of 2.14.
Variant RTHTGEKPSKCTLCGENFSHRSNL [Y9S] has a protein stability index of 2.38.
For RTHTGEKPTKCTLCGENFSHRSNL [Y9T], the protein stability index was 2.33.
For RTHTGEKPVKCTLCGENFSHRSNL [Y9V], the protein stability index was 2.33.
In the case of RTHTGEKPWKCTLCGENFSHRSNL [Y9W], the protein stability index is reported as 1.72.
RTHTGEKPYACTLCGENFSHRSNL [K10A] gave a protein stability index of 1.75.
RTHTGEKPYCCTLCGENFSHRSNL [K10C] gave a protein stability index of 2.44.
In the case of RTHTGEKPYDCTLCGENFSHRSNL [K10D], the protein stability index is reported as 2.68.
Work on RTHTGEKPYECTLCGENFSHRSNL [K10E] yielded a protein stability index of 2.04.
With RTHTGEKPYFCTLCGENFSHRSNL [K10F] the protein stability index was 1.76.
Work on RTHTGEKPYGCTLCGENFSHRSNL [K10G] yielded a protein stability index of 2.06.
For RTHTGEKPYHCTLCGENFSHRSNL [K10H], the protein stability index was 2.2.
In the case of RTHTGEKPYICTLCGENFSHRSNL [K10I], the protein stability index is reported as 1.72.
RTHTGEKPYLCTLCGENFSHRSNL [K10L] showed a protein stability index of 1.86.
RTHTGEKPYMCTLCGENFSHRSNL [K10M] showed a protein stability index of 1.97.
RTHTGEKPYNCTLCGENFSHRSNL [K10N] gave a protein stability index of 1.91.
For RTHTGEKPYPCTLCGENFSHRSNL [K10P], the protein stability index was 2.03.
RTHTGEKPYQCTLCGENFSHRSNL [K10Q] gave a protein stability index of 2.36.
RTHTGEKPYRCTLCGENFSHRSNL [K10R] gave a protein stability index of 1.81.
Work on RTHTGEKPYSCTLCGENFSHRSNL [K10S] yielded a protein stability index of 1.58.
In the case of RTHTGEKPYTCTLCGENFSHRSNL [K10T], the protein stability index is reported as 1.78.
RTHTGEKPYVCTLCGENFSHRSNL [K10V] showed a protein stability index of 2.05.
With RTHTGEKPYWCTLCGENFSHRSNL [K10W] the protein stability index was 2.38.
